Measured values reported in patent US8247227B2, “Dendritic cell precursors” (The Cleveland Clinic Foundation, priority 2006, dated 2012).

What was measured:
BM cells [1] = test: Step 2 culture: DC maturation and IL-12 production upon CpG+LPS after Step 1 conditioning; type: cell-based, mouse; conditions: for Step 2 response to TLR agonists (DC maturation) after Step 1 conditioning: CpG+LPS stimulation
Text: Following Step 1 conditioning, BM cultures were washed thoroughly and exposed to TLR agonists to test the cells' potential for DC maturation and IL-12 production during Step 2 culture. Since TLR9 and TLR4 were invariably expressed by mouse BM cells at the end of Step 1 cultures (not shown), we standardly employed CpG (ODN 1826) and lipopolysaccharide (LPS) to stimulate coordinate activation of MyD88 and TRIF pathways (Napolitani, G. et al. Nat. Immunol. 6, 769-776 (2005)).
(§1) Step 2 was initiated (0 hr) in CM, rmGMCSF and optionally rmIL4. Step 2 cultures were performed in 24 well cluster plates, 4 million BM cells per well in 2 ml CM. DC1 polarization stimuli such as CpG (ODN 1826, 5 μM) and LPS 50 ng/ml were added between 18-24 hrs, and cells harvested at 40-44 hrs for analyses. When included, immunosuppressive agents rmIL10, rmVEGF, rhTGFβ1 or PGE2 were added between 0 and 24 hrs of Step 2 culture at doses specified in Results. Alternatively, particulate tumor cells, either viable unirradiated, viable irradiated (10,000 cGy), or killed freeze-thawed lysate (Cohen, P A et al. Cancer Res. 54, 1055-1058 (1994)), were added to Step 2 BM cells. Viable tumor cells were sometimes labelled with CFSE (Molecular Probes, Eugene, Oreg.) to allow their identification and exclusion during subsequent FACS analyses (Peng, L. et al. J. Immunol. 169, 4811-4821 (2002)).
For routine multicolor FACS analyses, BM cells were cultured in anti-CD32 mAb plus normal mouse IgG to block FcRs, then directly stained with conjugated specific mAbs or isotype controls as listed in the figures (BD-Pharmingen, Mountain View, Calif.) (Peng, L. et al. J. Immunol. 165, 5738-5749 (2000)). When additionally assessing IL12 production at the cellular level, the last 16 hrs of Step 2 culture were performed in monensin (Golgistop™, BD-PharMingen). Then, following FcR block and direct staining of surface molecules, cells were fixed in formalin and permeabilized in tween (CytoPerm/CytoFix™, PharMingen), then additionally stained with PE-anti-mouse IL12p40 (BD-Pharmingen) or isotype control.
Assessments of supernatant contents of mIL12p70 heterodimer were performed with BD-Pharmingen reagents. mIFNα and mIFNβ ELISAs were performed with kits from PBL Biomedical Laboratories (New Brunswick, N.J.).

BM cells [2] = test: Step 2 culture: spontaneous DC maturation without exogenous maturation stimuli; type: cell-based, mouse
Text: DC differentiation typically arrests at the immature stage unless DCs are exposed to additional signals such as CD40 ligation, calcium ionophore or TLR agonists (Xu, S. et al. J. Immunol. 171, 2251-2261 (2003); Bonifaz, L. et al. J. Exp. Med. 196, 1627-1638 (2002); Napolitani, G. et al. Nat. Immunol. 6, 769-776 (2005); Czerniecki, B J et al. J. Immunol. 159, 3823-3837 (1997); Mailliard, R B et al. Cancer Res. 64, 5934-5937 (2004)). […] Instead, uniform upregulation of MHC Class II and CD11c ensued within hours of transfer from Flt3L+IL6 into GMCSF, followed by upregulation of CD40, co-stimulatory molecules and CCR7 between 48 and 72 hours of Step 2 culture.
as §1

conditioned BM cells = test: Tumor contact during Step 2 culture: DC maturation and IL12 production; type: cell-based, mouse
Experimental: Because DC ingestion of cellular material can induce tolerogenic DCs (Bonifaz, L. et al. J. Exp. Med. 196, 1627-1638 (2002)), we tested the impact of exposing DCs to large volumes of tumor at 16-24 hours of Step 2 culture in GMCSF, to determine tumor's impact on subsequent spontaneous maturation. To cluster plate wells each containing 4 million conditioned BM cells, we added either 4 million freeze-thawed (killed) tumor cells; 3 million irradiated (10,000 cGy), trypan-excluding tumor cells; or 2 million unirradiated, actively proliferating tumor cells. Given the much larger dimensions of viable tumor cells compared to the cultured BM cells, these represented voluminous tumor challenges.
as §1

L-selectin^low T cells = test: T cell co-cultures with variously conditioned DCs; type: cell-based, mouse; conditions: DCs prepared after the named Step 1 conditioning
Experimental: Step 2 DC cultures were performed in rGMCSF and rIL-4 with irradiated MCA-203 cells added at 24 hr and CpG+LPS added at 44 hr. Four hours later, DCs were harvested for co-culture with L-selectin^low T cells freshly harvested from MCA-203 tumor-bearing mice. T cells were co-cultured with DCs at an 8:1 ratio or were activated with immobilized anti-CD3. […] Cultures shown also received exogenous IL-2, IL-7 and IL-15.
Cultures shown also received exogenous IL2, IL7 and IL15.
Conditioned DC precursors were transferred to Step 2 culture, exposed to viable irradiated tumor, optionally further activated with CpG+LPS, then co-cultured with tolerized TDLN T cells from mice bearing the relevant tumor.
Prior to harvest of T cells from tumor-bearing mice, DCs were prepared under various Step 1 conditions in CM; Step 2 was performed in 1% non heat-deactivated mouse serum instead of FCS (CM-MS), during which BM cultures were exposed to viable irradiated tumor cells, then CpG+LPS as denoted in Results. On the day of DC harvest, T cells were freshly harvested from the tumor-draining lymph nodes of mice bearing 12 day tumors. The L-selectin^low (tolerized pre-effector) fraction of T cells was isolated by negative selection as described previously (Peng, L. et al. J. Immunol. 165, 5738-5749 (2000); Wang, L. et al. J. Translational Med. 2, 41 (2004)), and cultured in CM-MS with immobilized anti-CD3 (Peng, L. et al. J. Immunol. 165, 5738-5749 (2000); Wang, L. et al. J. Translational Med. 2, 41 (2004)) or variously conditioned DCs. Beginning on day 2 of T cell culture, some groups also received rhIL2 (24 I.U./m1), or rhIL2, rhIL7 (50 ng/ml) and rhIL15 (5 ng/ml). T cells were harvested for assays and adoptive therapy after 12 days of culture.

[3] = tested on: CD11c^pos (committed DC) subpopulation; test: In vivo responses to TLR agonists; parameters: species or system mouse; conditions: i.p. treatment
Experimental: FIG. 21 is a bar graph showing in vivo responses to TLR agonists. Mice were injected for 6 days with 10 mcg i.p. rhFlt3-L or no treatment. On the subsequent day, some mice were treated with a single i.p. injection for rmGMCSF 12 mcg. On the subsequent day, some mice were injected with i.p. with 50 mcg CpG (ODN 1826) and 100 mcg pI:C. […] The next day, mice were euthanized and spleens counted and analyzed by FACS for the activation status of the CD11c^pos (committed DC) subpopulation. MHC Class II, CD40, and CD86 (B7.2) were co-analyzed.

STAT3KO BM = test: Conditioning of STAT3 knockout BM; type: cell-based, mouse
Experimental: (§2) FIG. 18 illustrates responses of STAT knockout vs. wildtype littermate BM to Flt3-L+IL-6 vs. GMCSF-containing conditioning regiments. […] BM was obtained from KO mice or from matched wildtype LMs, placed in standard Step 1 cultures with Flt3-L+IL-6, Flt3-L+IL-6+GMCSF, or GMCSF alone as conditioning agents, then placed in 48 hr Step 2 cultures with GMCSF+IL-4 with CpG+LPS included during the final 18 hours. […] Data are presented as mean±s.d. of 3 replicates and are representative of three (STAT5KO vs LM) or two (STAT3KO vs LM) independently performed experiments;
(§3) We examined how STAT knockout BM preparations responsed to Flt3L+IL-6 conditioning. […] Therefore, the proliferative and differentiative impacts of Flt3-L+IL-6 conditioning were absolutely STAT3-dependent, whereas final phenotypic maturation and DC1-polarization were at least partially STAT5-dependent.
(§4) We also examined how STATKO BM preparations responded to GMCSF-containing Step 1 regimens (GMCSF alone, Flt3-L+GMCSF, or Flt3-L+GMCSF+IL-6). […] Therefore, all tested GMCSF-containing regimens promoted STAT5-dependent DC differentiation, with later phenotypic maturation and DC1-polarization proving susceptible to inhibition through STAT3.

STAT5KO BM = test: Conditioning of STAT5 knockout BM; type: cell-based, mouse
Experimental: as §2, §3, §4

[4] = tested on: CD34^pos stem cell subpopulation; test: Step 1 proliferative culture of fresh bone marrow: numeric expansion; type: cell-based, mouse; conditions: fresh mouse BM, 6-7 day Step 1 culture
Experimental: FIG. 6 is a chart showing numeric expansion resulting from the exposure of bone marrow (BM) suspensions to various factors. BM freshly harvested from C57BL/6 mice was cultured for 6 days in the specific factors, then harvested and counted. Each bar represents 3-11 determinations±s.d., each performed in synchronous comparison to at least five other groups. […] Synergistic expansions reflected a 35-80 fold selective outgrowth of the CD34^pos subpopulation (see FIG. 10);
FIG. 10 is a histogram showing gross numeric expansion of fresh bone marrow (BM) reflective of selective outgrowth of the CD34^pos subpopulation. Freshly prepared mouse BM cell suspensions were stained with FITC-anti-CD34 mAb to enable isolation of CD34^pos and CD34^neg subpopulations by a FACSAria cell sorter. CD34^pos cells initially represented 10.8±7% of the total BM cells. The following groups were then cultured for 6 days in 75 cm^2 flasks, either in Flt3L+SCF+IL6 (striped bars) or in Flt3L+IL6 (solid bars): “Unfractionated BM” (12-15 million per flask); “FACS sorted CD34^neg cells” (12-15 million per flask); “FACS sorted CD34^pos cells” (2-3 million per flask); or “FACS sorted, unirradiated CD34^pos cells plus irradiated (3,000 cGy) CD34^neg cells.” Labels above bars indicate fold numeric expansion during the 6 day culture. […] (Not done=group not done);
We cultured fresh mouse BM in two stages, a 6-7 day proliferative phase (Step 1) and a 2-3 day post-proliferative phase (Step 2). […] FACS sorting experiments confirmed that such expansion represented a net 35-80 fold proliferation of the minor (<12%) CD34^pos stem cell subpopulation, with rapid dropout of the initially CD34^neg subpopulation (FIG. 10). Stem cell proliferation persisted well past day 7 if medium and factors were adequately replenished (not shown).
Single cell suspensions were prepared from the femurs and tibias of healthy mice (Kuriyama, H. et al. Dev. Biol. (Basel) 116, 169-178 (2004)). Following RBC lysis by ammonium chloride, no further processing was performed. […] BM cells were normally cultured for 6-7 days, harvested, counted, and washed twice in PBS prior to initiation of Step 2 cultures.

[5] = single agent; cited from earlier work
mouse tumors = conditions: single agent; cited from earlier work

B1: granulocyte-macrophage colony stimulating factor (protein, UniProt P01587 18-141, looked up)
Granulocyte-macrophage …: APTRSPITVTRPWKHVEAIKEALNLLDDMPVTLNEEVEVVSNEFSFKKLTCVQTRLKIFEQGLRGNFTKLKGALNMTASYYQTYCPPTPETDCETQVTTYADFIDSLKTFLTDIPFECKKPGQK
notes: murine GMCSF from Immunex
- Step 2 response to TLR agonists (DC maturation) after Step 1 conditioning (BM cells [1]): infrequent and/or blunted responses to the TLR agonists
- effect of GMCSF addition during Step 2 culture (BM cells [1]; GMCSF added in Step 2 only): not at all inhibitory
- effect of co-conditioning with GMCSF on Flt3L+IL6's licensing impact (BM cells [1]; GMCSF present in Step 1): abrogated
- effect of GMCSF as Step 1 agent on licensing of spontaneous DC maturation by Flt3L or Flt3L+IL6 (BM cells [2]): fully abrogated
- effect of GMCSF as Step 1 agent on licensing of tumor-induced activation by Flt3L+IL6 (conditioned BM cells): fully abrogated
- effect of conditioned DCs on tolerized T cell co-cultures (proliferation / toxicity) (L-selectin^low T cells): ineffective for propagating the T cells
- activation of maturation markers MHC Class II, CD40, CD86 on CD11c^pos spleen cells [3]: further enhanced
- survival / proliferation of STAT3KO BM in Step 1 conditioning (STAT3KO BM): normal proliferation kinetics
- maturational and IL-12p70 response of STAT3KO DCs (STAT3KO BM; TLR stimulation, Step 2): abnormally heightened maturational and IL-12p70 response to TLR stimulation
- proliferation and DC differentiation of STAT5KO BM (STAT5KO BM): strikingly ineffective for generating DCs

B2: Flt3 ligand (protein, UniProt P49771 27-235, looked up)
Fms-related tyrosine kinase 3 …: TQDCSFQHSPISSDFAVKIRELSDYLLQDYPVTVASNLQDEELCGGLWRLVLAQRWMERLKTVAGSKMQGLLERVNTEIHFVTKCAFQPPPSCLRFVQTNISRLLQETSEQLVALKPWITRQNFSRCLELQCQPDSSTLPPPWSPRPLEATAPTAPQPPLLLLLLLPVGLLLLAAAWCLHWQRTRRRTPRPGEQVPPVPSPQDLLLVEH
notes: recombinant human Flt3 ligand, gift of Amgen
- numeric expansion during Step 1 culture [4]: yielded only a fraction of culture input
- Step 2 response to TLR agonists (DC maturation) after Step 1 conditioning (BM cells [1]): nearly global licensing for pronounced TLR reactivity
- spontaneous DC maturation during Step 2 culture (BM cells [2]; after Step 1 conditioning, no exogenous maturation stimuli): spontaneous tendency to complete DC maturation
- myeloproliferative activity in animals [5]: highly myeloproliferative

B3: interleukin-6 (protein, UniProt P08505 25-211, looked up)
Interleukin-6: FPTSQVRRGDFTEDTTPNRPVYTTSQVGGLITHVLWEIVEMRKELCNGNSDCMNNDDALAENNLKLPEIQRNDGCYQTGYNQEICLLKISSGLLEYHSYLEYMKNNLKDNKKDKARVLQRDTETLIHIFNQEVKDLHKIVLPTPISNALLTDKLESQKEWLRTKTIQFILKSLEEFLKVTLRSTRQT
- therapeutic properties against established mouse tumors (mouse tumors): extremely potent therapeutic properties
